Reference: US20120088722A1
Ends that are not written are not given here.

Key:
[1] = target: extracellular matrix of whole cell primary chondrocyte cultures; experiment: fluorescent peptide binding to extracellular matrix of hypertrophic chondrocyte monolayer cultures, reference scrambled peptide
[2] = target: resting cartilage tissue extract; experiment: fluorescent peptide (100 nM) binding to plate-dried cartilage CHAPS extract, reference scrambled peptide
[3] = target: hypertrophic cartilage tissue extract; experiment: as above

For ELGLPKEVKKISAAVHFED (also: fluorescent-labeled in binding assay, label and position not given here) [MMP13-19 peptide (amino acids 93-111 of SEQ ID NO: 1)], the fold binding compared to scrambled peptide [1] was 8 fold, the fold binding over scrambled peptide control [2] was 5 fold and the fold binding over scrambled peptide control [3] was 9 fold.

For LRGETMIFKD (also: fluorescent label (label and position not given here)) [MMP13-10 peptide (amino acids 17-26 of SEQ ID NO: 1)], the fold binding compared to scrambled peptide [1] was 4 fold, the fold binding over scrambled peptide control [2] was < 2 fold and the fold binding over scrambled peptide control [3] was < 2 fold.
